The experiment addresses T1, TAP-tagged HMO1 (S. cerevisiae, UniProt Q03973 1-246).
T1 sequence: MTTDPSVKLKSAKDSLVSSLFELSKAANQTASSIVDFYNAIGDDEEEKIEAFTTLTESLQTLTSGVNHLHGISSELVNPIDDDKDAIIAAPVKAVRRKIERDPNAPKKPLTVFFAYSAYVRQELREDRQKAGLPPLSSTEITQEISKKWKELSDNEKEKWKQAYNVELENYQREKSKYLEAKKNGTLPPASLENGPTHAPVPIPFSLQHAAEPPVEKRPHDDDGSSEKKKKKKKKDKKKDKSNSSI
In words: TAP purification with immunoblot.

B1: TAF11 (natural protein)
chain: MTEPQGPLDTIPKVNYPPILTIANYFSTKQMIDQVISEDQDYVTWKLQNLRTGGTSINNQLNKYPKYKYQKTRINQQDPDSINKVPENLIFPQDILQQQTQNSNYEDTNTNEDENEKLAQDEQFKLLVTNLDKDQTNRFEVFHRTSLNKTQVKKLASTVANQTISENIRVFLQAVGKIYAGEIIELAMIVKNKWLTSQMCIEFDKRTKIGYKLKKYLKKLTFSIIENQQYKQDYQSDSVPEDEPDFYFDDEEVDKRETTLGNSLLQSKSLQQSDHNSQDLKLQLIEQYNKLVLQFNKLDVSIEKYNNSPLLPEHIREAWRLYRLQSDTLPNAYWRTQGEGQGSMFR
Consider B1, for which the “percent recovered with HMO1-TAP” value was approximately 0.01%.

B2: TAF1 (natural protein)
chain: MVKQQGSGKTNLANEDEAYEAIFGGEFGSLEIGSYIGGDEGANSKDYTEHLPDAVDFEDEDELADDDDDLPEESDANLHPAMMTMGAYDDVNENGAVLGIDSNSLNMQLPEINGDLSQQFILEDDGGTPATSNALFMGMDANEIHLATETGVLDGSGANEIGHSQLSIGGVNGNDMSINGGFIMEPDMSDGKHKKATKLDLINHEKYLLKKYFPDFEKGKILKWNKLIYRRSVPYHWHSEISRVKKPFMPLNLKFKVQQDDKRLFNSRTISYVAPIYQGKNNLLQSNSSASRRGLIHVSIDELFPIKEQQKKRKIIHDEKTISEDLLIATDDWDQEKIINQGTSSTATLADSSMTPNLKFSGGYKLKSLIEDVAEDWQWDEDMIIDAKLKESKHAELNMNDEKLLLMIEKTNNLAQQKQQLDSSNLILPLNETILQQKFNLSNDDKYQILKKTHQTKVRSTISNLNIQHSQPAINLQSPFYKVAVPRYQLRHFHRENFGSHIRPGTKIVFSKLKARKRKRDKGKDVKESFSTSQDLTIGDTAPVYLMEYSEQTPVALSKFGMANKLINYYRKANEQDTLRPKLPVGETHVLGVQDKSPFWNFGFVEPGHIVPTLYNNMIRAPVFKHDISGTDFLLTKSSGFGISNRFYLRNINHLFTVGQTFPVEEIPGPNSRKVTSMKATRLKMIIYRILNHNHSKAISIDPIAKHFPDQDYGQNRQKVKEFMKYQRDGPEKGLWRLKDDEKLLDNEAVKSLITPEQISQVESMSQGLQFQEDNEAYNFDSKLKSLEENLLPWNITKNFINSTQMRAMIQIHGVGDPTGCGEGFSFLKTSMKGGFVKSGSPSSNNNSSNKKGTNTHSYNVAQQQKAYDEEIAKTWYTHTKSLSISNPFEEMTNPDEINQTNKHVKTDRDDKKILKIVRKKRDENGIIQRQTIFIRDPRVIQGYIKIKEQDKEDVNKLLEEDTSKINNLEELEKQKKLLQLELANLEKSQQRRAARQNSKRNGGATRTENSVDNGSDLAGVTDGKAARNKGKNTTRRCATCGQIGHIRTNKSCPMYSSKDNPASPK
As to B2, the “percent recovered with HMO1-TAP” value is approximately 0.01%.

The values above are taken from publication PMC2275077 (Nucleic Acids Research, 2008).
